This note sets out measurements from patent US20210269549A1, “ANTI-SAS1B ANTIBODIES, ASSOCIATED METHODS OF USE, AND COMPOSITIONS AND METHODS FOR DETECTING AND TREATING CANCER” (UNIVERSITY OF VIRGINIA PATENT FOUNDATION, priority 2015, published 2021).

Test [1] deals with SAS1B+ tumor cell lines. Description: Confocal immunofluorescence microscopy on live cells (FIG. 25). It is filed as cell-based. An excerpt: Bioassays to select therapeutic and diagnostic mAbs have focused on two strategies: 1) identification of mAbs reactive with recombinant SAS1B, endogenous SAS1B, and with SAS1B accessible on cell surfaces; and 2) mAbs that recognize epitopes preserved in formalin fixed paraffin embedded sections that work as immuno-cytochemical probes. […] These transfected cells provide one effective screening tool to identify mAbs reactive with native epitopes on SAS1B. Another screening assay is to study SAS1B+ tumor cell lines by immunofluorescence microscopy and FACS. mAbs that recognize SAS1B at the surface of live cells and gate specific cell populations by FACS have been isolated. […] Efforts to identify mAbs that localize SAS1B in fixed embedded sections have also yielded reagents of utility for histopathology. […] Thus the non-human primate ovary can be used as a positive control tissue for studying the histopathology of tumor specimens with these reagents.

Test [2] relates to human pancreatic cancer cell MPanc96. The experiment in a line: ADC cytotoxicity assay (total cellular ATP), MPanc96. The format is cell-based. The settings on record: 0.1 nM mAb, Fab-DMDM constant at 15 nM, ~72 hours. As for the experimental part: The cytotoxic effect of anti-human SAS1B mAbs SB2, SB4, SB5 on human pancreatic cancer cell MPanc96 was determined by ADC assay. Human pancreatic cancer cells MPanc96 were seeded in triplicate on 96 well plates (1100 cells per well) overnight and then treated with SB2, SB4, SB5, and […] (anti-CABYR) and anti-mouse Fab-cleavable-Duocarmycin complex for ˜72 hours. The presence of viable live cells per well was measured by total cellular ATP content in relative luminescence unit (RLU). […] The anti-SAS1B mAbs SB2, SB4, and SB5 killed 80%, 64%, 57% of cells, respectively, at 1 nM concentration when Fab-DMDM was kept constant at 15 nM for all primary antibody dilutions. SB2 killed 67% of cells at 0.1 nM concentration. […] Staurosporine, a general protein kinase inhibitor, which induces apoptosis, was used as a positive control and DMSO was used as a negative control. The data are shown in FIG. 7A-B and represent an average of triplicate experiments.

B1: SB2: mouse anti-human SAS1B monoclonal antibody, IgG2b; VH SEQ ID NO:14, VL SEQ ID NO:15 (antibody, listed as Mus musculus, V domains shown)
VH: EVQLQQSGPELVKPGSSVKISCKASGYTFTDYNMVWVKQSHGKSLEWIGAVNPNNGGTSYNQKFKGKATLTVDKSSSTAYMELRSLTSEDSAVYYCVPNWDWFAYWGQGTLVTVSA
VL: DVLMTQTPLSLPVSLGDQASISCRSSQSLVHSNGNTYLEWYLQKPGQSPNLLIYKVSNRFSGVPDRFSGSGSGTDFTLKISRVEAEDLGVYYCFQGSHVPFTFGSGTKLEIK
For B1, the “Binding of SAS1B on live cells” value in test [1] is “bind SAS1B on live cells”. The same molecule yielded a Cells killed in test [2] of 67%.
